Data from patent US20090297439A1 (METHERESIS TRANSLATIONAL RESEARCH, published 2009).

Biological target: T1, Met (UniProt P08581 25-932, limits assumed)
T1 construct: Met as the partner of the printed Kd; The assay and the construct are not described; also called HGFR; hepatocyte growth factor receptor
Assay: not stated (given as a property of the antibody in Material and Methods)

T1 sequence (P08581 25-932 limits assumed): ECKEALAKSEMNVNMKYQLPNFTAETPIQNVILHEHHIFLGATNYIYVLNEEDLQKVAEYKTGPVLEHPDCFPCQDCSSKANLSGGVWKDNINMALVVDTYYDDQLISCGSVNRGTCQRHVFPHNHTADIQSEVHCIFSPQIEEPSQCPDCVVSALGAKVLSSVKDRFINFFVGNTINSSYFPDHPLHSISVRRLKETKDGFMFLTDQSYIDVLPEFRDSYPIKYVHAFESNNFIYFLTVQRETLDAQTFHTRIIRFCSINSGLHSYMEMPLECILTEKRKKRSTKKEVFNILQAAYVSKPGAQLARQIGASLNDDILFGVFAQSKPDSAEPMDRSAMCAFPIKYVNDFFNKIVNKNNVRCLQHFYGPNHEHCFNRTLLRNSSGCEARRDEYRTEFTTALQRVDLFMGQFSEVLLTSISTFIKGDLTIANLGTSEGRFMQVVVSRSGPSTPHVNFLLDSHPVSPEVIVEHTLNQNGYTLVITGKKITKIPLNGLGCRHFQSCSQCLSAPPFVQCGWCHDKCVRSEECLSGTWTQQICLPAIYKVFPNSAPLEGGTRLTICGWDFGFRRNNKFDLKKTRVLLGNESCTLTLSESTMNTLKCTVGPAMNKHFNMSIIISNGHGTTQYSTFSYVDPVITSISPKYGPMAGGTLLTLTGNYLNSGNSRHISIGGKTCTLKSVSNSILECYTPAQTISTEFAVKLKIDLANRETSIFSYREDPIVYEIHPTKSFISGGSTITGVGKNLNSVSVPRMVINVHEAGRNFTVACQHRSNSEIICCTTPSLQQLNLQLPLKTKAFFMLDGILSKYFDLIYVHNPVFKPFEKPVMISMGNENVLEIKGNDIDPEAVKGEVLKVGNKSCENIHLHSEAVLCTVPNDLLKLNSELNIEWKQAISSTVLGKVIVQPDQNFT

Kd: 2.64 nM
B1: murine IgG2a MAb DN30 (antibody, V domains shown)
VH: QVQLQQPGTELVKPGASVKLSCKASGYTFTSYWIHWVKQRPGQGLEWIGEINPSSGRTNYNEKFKNKVTVTVDKSSTTAYMQLSNLTSEDSAVYYCASRGYWGQGTTLTVSS
VL: DIVLTQSPASLAVSLGQRATISCKASQSVDYDGGSYMSWFQQRPGQPPKLLISAASNLESGIPARFSGSGSGTDFTLNIHPVEEEDVATYYCQQSYEDPLTFGAGTKLELKR
notes: Murine IgG2a, intact MAb; also called anti-Met monoclonal antibody produced by the hybridoma cell line ICLC PD 05006
